Legend:
[1] = target: soluble gB truncated at amino acid 739, gB(739t) (herpes simplex virus 1 (HSV-1), strain KOS) (UniProt P06437); test: native gel or EMSA
[2] = target: soluble gB truncated at amino acid 739, gB(739t) (herpes simplex virus 1 (HSV-1), strain KOS) (UniProt P06437); test: SEC
[3] = target: soluble gB truncated at amino acid 773, gB(773t) (herpes simplex virus 1 (HSV-1), strain KOS) (UniProt P06437); test: native gel or EMSA
[4] = target: soluble gB truncated at amino acid 773, gB(773t) (herpes simplex virus 1 (HSV-1), strain KOS) (UniProt P06437); test: SEC
[5] = target: soluble gB truncated at amino acid 749, gB(749t) (herpes simplex virus 1 (HSV-1), strain KOS) (UniProt P06437); test: native gel or EMSA
[6] = target: soluble gB truncated at amino acid 749, gB(749t) (herpes simplex virus 1 (HSV-1), strain KOS) (UniProt P06437); test: SEC
[7] = target: soluble gB truncated at amino acid 759, gB(759t) (herpes simplex virus 1 (HSV-1), strain KOS) (UniProt P06437); test: native gel or EMSA
[8] = target: soluble gB truncated at amino acid 759, gB(759t) (herpes simplex virus 1 (HSV-1), strain KOS) (UniProt P06437); test: SEC
[9] = target: soluble gB truncated at amino acid 730, gB(730t) (herpes simplex virus 1 (HSV-1)) (UniProt P06437); test: SEC

Substance: soluble gB truncated at amino acid 739, gB(739t) (from UniProt P06437 31-739) (domain or fragment)
- stoichiometry N [1]: 3
- stoichiometry N [2]: 3

Substance: soluble gB truncated at amino acid 773, gB(773t) (from UniProt P06437 31-773) (domain or fragment)
- stoichiometry N [3]: 3
- stoichiometry N [4]: 3

Substance: soluble gB truncated at amino acid 749, gB(749t) (from UniProt P06437 31-749) (domain or fragment)
- stoichiometry N [5]: 3
- stoichiometry N [6]: 3

Substance: soluble gB truncated at amino acid 759, gB(759t) (from UniProt P06437 31-759) (domain or fragment)
- stoichiometry N [7]: 3
- stoichiometry N [8]: 3

Substance: soluble gB truncated at amino acid 730, gB(730t) (from UniProt P06437 31-730) (domain or fragment)
- stoichiometry N [9]: 3

Reference: article PMC3509434
